Measured values from the supplement of paper PMC9732359.
± gives the uncertainty stated by the source.

Assay: protein stability index of a GFP-peptide fusion (yeast GPS) (PSI 1-4); higher = more stable; sorted into four equal gates, so the index is relative within each strain
In short: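 Plasmids in a pooled yeast library fused tiled 17-residue yeast protein peptides downstream of GFP and also expressed Cherry. Mid-log cultures grown without leucine were sorted into four equal gates by GFP/Cherry fluorescence ratio. Each gate's plasmids were PCR-amplified and Illumina-sequenced, and reads were matched to strains by barcodes. The protein stability index is derived by multiplying each gate's read frequency by its gate number and summing the results.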

Sequence: KLSDSKTSNIESVPIYS [BRR2]
- protein stability index (doa10∆): 2.5 ± 0.054
- protein stability index (pdr5∆): 2.64 ± 0.062
- protein stability index (san1∆): 2.33 ± 0.042
- protein stability index (ubr1∆): 2.6 ± 0.054

Sequence: YPLPKFPTTSHESLVTT [MED8]
- protein stability index (doa10∆): 1.81 ± 0.056
- protein stability index (pdr5∆): 1.92 ± 0.06
- protein stability index (san1∆): 2.12 ± 0.08
- protein stability index (ubr1∆): 1.72 ± 0.063

Sequence: VVVIDGKGHLVGRLASV [RPL16A]
- protein stability index (doa10∆): 1.66 ± 0.065
- protein stability index (pdr5∆): 1.64 ± 0.054
- protein stability index (san1∆): 1.71 ± 0.1
- protein stability index (ubr1∆): 1.97 ± 0.052

Sequence: DENKAGATSKPAFSFGA [YJL041W/NSP1]
- protein stability index (doa10∆): 3.15 ± 0.07
- protein stability index (pdr5∆): 3.32 ± 0.068
- protein stability index (san1∆): 3.33 ± 0.048
- protein stability index (ubr1∆): 3.1 ± 0.061

Sequence: KIADNISKDENEDQFLE [YDL116W/NUP84]
- protein stability index (doa10∆): 2.92 ± 0.14
- protein stability index (pdr5∆): 2.98 ± 0.13
- protein stability index (san1∆): 2.86 ± 0.13
- protein stability index (ubr1∆): 3.33 ± 0.1

Sequence: VRRLEAQRNALNDKVRF [RPT6]
- protein stability index (doa10∆): 2.63 ± 0.1
- protein stability index (pdr5∆): 2.96 ± 0.089
- protein stability index (san1∆): 2.77 ± 0.13
- protein stability index (ubr1∆): 2.7 ± 0.045

Sequence: TSSAPAQNQGMFGAKPA [YGL172W/NUP49]
- protein stability index (doa10∆): 2.44 ± 0.11
- protein stability index (pdr5∆): 2.75 ± 0.089
- protein stability index (san1∆): 1.92 ± 0.14
- protein stability index (ubr1∆): 2.79 ± 0.069

Sequence: RAANQGALPPDLSLIVK [CYT1]
- protein stability index (doa10∆): 2.95 ± 0.11
- protein stability index (pdr5∆): 3 ± 0.074
- protein stability index (san1∆): 3.03 ± 0.18
- protein stability index (ubr1∆): 2.87 ± 0.074

Sequence: YKIKGRNNSKSVLLKKL [SRP72]
- protein stability index (pdr5∆): 1.56 ± 0.11
- protein stability index (san1∆): 2.42 ± 0.26
- protein stability index (ubr1∆): 1.06 ± 0.11

Sequence: FSMGHIRSSSVSLVAEA [MED4]
- protein stability index (doa10∆): 1.52 ± 0.078
- protein stability index (pdr5∆): 1.67 ± 0.057
- protein stability index (san1∆): 1.31 ± 0.14
- protein stability index (ubr1∆): 1.69 ± 0.033

Sequence: VVVVLEEPSASIMVELK [SIR3]
- protein stability index (doa10∆): 2.95 ± 0.083
- protein stability index (pdr5∆): 2.99 ± 0.16
- protein stability index (san1∆): 3.28 ± 0.065
- protein stability index (ubr1∆): 2.86 ± 0.2

Sequence: GLNNDFLFQNINFERID [GRR1]
- protein stability index (doa10∆): 2.09 ± 0.05
- protein stability index (pdr5∆): 2.16 ± 0.057
- protein stability index (san1∆): 2.19 ± 0.055
- protein stability index (ubr1∆): 2.12 ± 0.042

Sequence: HPGFGCWLSSVDVNTQK [RPN11]
- protein stability index (doa10∆): 1.25 ± 0.23
- protein stability index (pdr5∆): 1.25 ± 0.24

Sequence: NQLVAKLLLLRINSTDE [SRB8]
- protein stability index (doa10∆): 1.67 ± 0.11
- protein stability index (pdr5∆): 1.22 ± 0.17
- protein stability index (ubr1∆): 1.14 ± 0.055

Sequence: LLREYDILSQILYGLVD [YJL039C/NUP192]
- protein stability index (doa10∆): 2.49 ± 0.081
- protein stability index (pdr5∆): 2.06 ± 0.12
- protein stability index (san1∆): 2.07 ± 0.11
- protein stability index (ubr1∆): 2.19 ± 0.064

Sequence: ANYIKERTKNAQFIVIS [SMC4]
- protein stability index (doa10∆): 2.76 ± 0.11
- protein stability index (pdr5∆): 1.5 ± 0.067
- protein stability index (san1∆): 1.49 ± 0.11
- protein stability index (ubr1∆): 2.27 ± 0.071

Sequence: KIDGNPDELIKAGVEAI [PRE5]
- protein stability index (doa10∆): 3.32 ± 0.17
- protein stability index (pdr5∆): 3.44 ± 0.2
- protein stability index (san1∆): 3.29 ± 0.083
- protein stability index (ubr1∆): 3.36 ± 0.092

Sequence: HHIHHFEKKELQEKFLN [IRR1]
- protein stability index (doa10∆): 1.72 ± 0.035
- protein stability index (pdr5∆): 1.61 ± 0.043
- protein stability index (san1∆): 1.87 ± 0.068
- protein stability index (ubr1∆): 1.56 ± 0.037

Sequence: SLKDLSSLRNQELLNAE [RPN3]
- protein stability index (pdr5∆): 2.15 ± 0.22
- protein stability index (san1∆): 3.34 ± 0.14

Sequence: PMTVKLVQLPKSAMDTF [POP3]
- protein stability index (doa10∆): 2.15 ± 0.058
- protein stability index (pdr5∆): 2.52 ± 0.062
- protein stability index (san1∆): 2.81 ± 0.053
- protein stability index (ubr1∆): 2.88 ± 0.053

Sequence: TKTEALLSDVVSTSSGA [YJL041W/NSP1]
- protein stability index (doa10∆): 2.73 ± 0.13
- protein stability index (pdr5∆): 3.1 ± 0.2
- protein stability index (san1∆): 2.75 ± 0.15

Sequence: LTNEISDLKGKLSSAEN [YIL149C/MLP2]
- protein stability index (doa10∆): 3.38 ± 0.22
- protein stability index (pdr5∆): 3.29 ± 0.13
- protein stability index (ubr1∆): 3.32 ± 0.18

Sequence: NTENVESVPTPANAEPQ [ITC1]
- protein stability index (doa10∆): 3.11 ± 0.087
- protein stability index (pdr5∆): 3 ± 0.086
- protein stability index (san1∆): 2.96 ± 0.1
- protein stability index (ubr1∆): 3.22 ± 0.12

Sequence: ELNIIPRDLLRVIIQEL [PRP28]
- protein stability index (doa10∆): 1.15 ± 0.062
- protein stability index (pdr5∆): 1.4 ± 0.061
- protein stability index (san1∆): 1.38 ± 0.21
- protein stability index (ubr1∆): 1.15 ± 0.045

Sequence: KNSSTSNTEPIPRSNRH [MED1]
- protein stability index (doa10∆): 3.1 ± 0.14
- protein stability index (pdr5∆): 3.26 ± 0.12
- protein stability index (san1∆): 2.91 ± 0.091
- protein stability index (ubr1∆): 3.18 ± 0.063

Sequence: KKRNPSKQNGSKFHFSW [PRP28]
- protein stability index (doa10∆): 2.78 ± 0.054
- protein stability index (pdr5∆): 2.62 ± 0.05
- protein stability index (san1∆): 2.52 ± 0.052
- protein stability index (ubr1∆): 2.49 ± 0.038

Sequence: NLGYCNDKLIVDNDNWV [RPN1]
- protein stability index (doa10∆): 2.37 ± 0.1
- protein stability index (pdr5∆): 2.79 ± 0.18
- protein stability index (san1∆): 2.32 ± 0.2

Sequence: SPVSSVHTANFSERGSN [MED2]
- protein stability index (doa10∆): 2.71 ± 0.083
- protein stability index (pdr5∆): 2.82 ± 0.068
- protein stability index (san1∆): 2.53 ± 0.072
- protein stability index (ubr1∆): 2.86 ± 0.044

Sequence: FLTNYNVRMDTMANILY [RPB2]
- protein stability index (doa10∆): 3.58 ± 0.17
- protein stability index (pdr5∆): 3.02 ± 0.098
- protein stability index (san1∆): 3.48 ± 0.1
- protein stability index (ubr1∆): 3.48 ± 0.14

Sequence: AINPGRVAASFSQEALQ [FAS1]
- protein stability index (doa10∆): 2.05 ± 0.15
- protein stability index (pdr5∆): 2.53 ± 0.15
- protein stability index (san1∆): 2.63 ± 0.13
- protein stability index (ubr1∆): 1.98 ± 0.098

Sequence: PNEFMQFKSKEVEKAHP [PRP8]
- protein stability index (doa10∆): 3.16 ± 0.08
- protein stability index (pdr5∆): 3.37 ± 0.11
- protein stability index (san1∆): 3.23 ± 0.052
- protein stability index (ubr1∆): 3.25 ± 0.091

Sequence: QCYKIYDLVILKSGLPL [YMR129W/POM152]
- protein stability index (pdr5∆): 2.04 ± 0.12
- protein stability index (san1∆): 2.25 ± 0.14
- protein stability index (ubr1∆): 1.29 ± 0.059

Sequence: VVGTETRVNAQLESYEY [RRI1]
- protein stability index (doa10∆): 2.72 ± 0.18
- protein stability index (pdr5∆): 1.65 ± 0.11
- protein stability index (san1∆): 3.33 ± 0.1
- protein stability index (ubr1∆): 2.26 ± 0.1

Sequence: ELLIYKKSQCKKKTTLE [YIL149C/MLP2]
- protein stability index (doa10∆): 3.03 ± 0.21
- protein stability index (pdr5∆): 3.29 ± 0.13
- protein stability index (san1∆): 2.95 ± 0.083
- protein stability index (ubr1∆): 3.19 ± 0.15

Sequence: AGNKVGQSEASLLNLLN [RPP0]
- protein stability index (doa10∆): 3.03 ± 0.12
- protein stability index (pdr5∆): 2.25 ± 0.095
- protein stability index (san1∆): 2.67 ± 0.1
- protein stability index (ubr1∆): 2.95 ± 0.12

Sequence: ENDNLDNVSKNALDKLR [YCG1]
- protein stability index (doa10∆): 3.29 ± 0.099
- protein stability index (pdr5∆): 3.15 ± 0.16
- protein stability index (san1∆): 3.08 ± 0.08
- protein stability index (ubr1∆): 3.26 ± 0.1

Sequence: NNVYFAAGALFVSSGFD [RPN14]
- protein stability index (doa10∆): 1.78 ± 0.13
- protein stability index (pdr5∆): 2.81 ± 0.15
- protein stability index (san1∆): 1.92 ± 0.29
- protein stability index (ubr1∆): 2.21 ± 0.17

Sequence: VHELSKRVHTLLTLIVR [ISW2]
- protein stability index (doa10∆): 1.34 ± 0.091
- protein stability index (pdr5∆): 1.44 ± 0.064
- protein stability index (san1∆): 1.96 ± 0.16
- protein stability index (ubr1∆): 1.37 ± 0.041

Sequence: LEKGEIELSDGSTFKVN [YJL039C/NUP192]
- protein stability index (doa10∆): 3.02 ± 0.079
- protein stability index (pdr5∆): 3.1 ± 0.067
- protein stability index (san1∆): 2.83 ± 0.073
- protein stability index (ubr1∆): 2.95 ± 0.052

Sequence: TNTFGSNSAGTSLFGSS [YJL041W/NSP1]
- protein stability index (doa10∆): 3.1 ± 0.083
- protein stability index (pdr5∆): 2.84 ± 0.09
- protein stability index (san1∆): 3.16 ± 0.082
- protein stability index (ubr1∆): 3.15 ± 0.058

Sequence: SQQNIVPNSSDQAELPN [SNF2]
- protein stability index (doa10∆): 2.73 ± 0.06
- protein stability index (pdr5∆): 2.67 ± 0.079
- protein stability index (san1∆): 3.04 ± 0.057
- protein stability index (ubr1∆): 3.01 ± 0.069

Sequence: FMEIVLEYNVALNDVYL [YML031W/NDC1]
- protein stability index (doa10∆): 2.47 ± 0.09
- protein stability index (pdr5∆): 2.3 ± 0.084
- protein stability index (san1∆): 2.22 ± 0.11
- protein stability index (ubr1∆): 1.66 ± 0.064

Sequence: QQMIITRLKSLLKPFHV [SIR3]
- protein stability index (doa10∆): 2.17 ± 0.07
- protein stability index (pdr5∆): 2.08 ± 0.053
- protein stability index (san1∆): 2 ± 0.073
- protein stability index (ubr1∆): 1.99 ± 0.035

Sequence: MLLLNIFISSDHEFVLI [YMR129W/POM152]
- protein stability index (doa10∆): 1.64 ± 0.057
- protein stability index (pdr5∆): 1.28 ± 0.055
- protein stability index (san1∆): 1.32 ± 0.098
- protein stability index (ubr1∆): 1.23 ± 0.057

Sequence: NINSTDKSIDTSSLQLY [YML103C/NUP188]
- protein stability index (doa10∆): 2.98 ± 0.099
- protein stability index (pdr5∆): 2.67 ± 0.14
- protein stability index (san1∆): 3.11 ± 0.049
- protein stability index (ubr1∆): 3.25 ± 0.07

Sequence: MDALTLMKCCHEAYSII [RRP45]
- protein stability index (doa10∆): 1.77 ± 0.063
- protein stability index (pdr5∆): 2.04 ± 0.071
- protein stability index (san1∆): 1.84 ± 0.099
- protein stability index (ubr1∆): 1.76 ± 0.12

Sequence: IFSYLQFTSSLFKALKV [RGR1]
- protein stability index (doa10∆): 1.61 ± 0.059
- protein stability index (pdr5∆): 1.3 ± 0.052
- protein stability index (san1∆): 1.12 ± 0.11
- protein stability index (ubr1∆): 1.05 ± 0.056

Sequence: SQTMAETYVASYVVPRL [ECM29]
- protein stability index (doa10∆): 1.85 ± 0.042
- protein stability index (pdr5∆): 1.82 ± 0.049
- protein stability index (san1∆): 1.9 ± 0.069
- protein stability index (ubr1∆): 2 ± 0.038

Sequence: THRNKDGTGVRVIVAGT [FAS1]
- protein stability index (doa10∆): 2.16 ± 0.26
- protein stability index (pdr5∆): 1.59 ± 0.082
- protein stability index (san1∆): 1.62 ± 0.21
- protein stability index (ubr1∆): 1.6 ± 0.15

Sequence: QNPKLFQTIFSKQDLIH [SIN4]
- protein stability index (doa10∆): 2.43 ± 0.058
- protein stability index (pdr5∆): 2.02 ± 0.046
- protein stability index (san1∆): 2.02 ± 0.085
- protein stability index (ubr1∆): 2.02 ± 0.051

Sequence: NLPKDKSGIPEFTPADP [SSN2]
- protein stability index (doa10∆): 2.99 ± 0.091
- protein stability index (pdr5∆): 3.12 ± 0.075
- protein stability index (san1∆): 3.03 ± 0.076
- protein stability index (ubr1∆): 3.47 ± 0.056
